Measurements taken from publication PMC9815098 (Acta Crystallographica. Section D, Structural Biology, 2023).

Molecular target: the molecule itself
Assay: SEC-MALS; RBP-CPN at 0.5, 1.0 and 5 mg ml^-1; Superdex 75 Increase 10/300 GL; 10 mM sodium phosphate pH 7.8, 50 mM sodium chloride, 0.02% sodium azide; room temperature; monomer to dimer

B1: RBP-CPN (permuted N-terminal lobe of the ribose-binding protein from Thermotoga maritima) (domain or fragment)
chain: MKGKMAIVISTLNNPWFVVLAETAKQRAEQLGYEATIFDSQNDTAKESAHFDAIIAAGYDAIIFNPTDADGSIANVKRAKEAGIPVFCVDRGINARGLAVAQIYSDTSTQFPKLMARLAVEWADQYLRGG
notes: residue printed between position 263 and the HHHHHH tag; source: E. coli BL21 (DE3), purified (IMAC, SEC)
stoichiometry N: 2
